{"source": "patent US20090291439", "proteins": {"B1": {"name": "human DUSP13 protein (protein)", "chain": "MDSLQKQDLRRPKIHGAVQASPYQPPTLASLQRLLWVRQAATLNHIDEVWPSLFLGDAYAARDKSKLIQLGITHVVNAAAGKFQVDTGAKFYRGMSLEYYGIEADDNPFFDLSVYFLPVARYIRAALSVPQGRVLVHCAMGVSRSATLVLAFLMICENMTLVEAIQTVQAHRNICPNSGFLRQLQVLDNRLGRETGRF"}}, "key": {"[1]": {"biological_target": "Akt1", "sequence (P31749 whole entry)": "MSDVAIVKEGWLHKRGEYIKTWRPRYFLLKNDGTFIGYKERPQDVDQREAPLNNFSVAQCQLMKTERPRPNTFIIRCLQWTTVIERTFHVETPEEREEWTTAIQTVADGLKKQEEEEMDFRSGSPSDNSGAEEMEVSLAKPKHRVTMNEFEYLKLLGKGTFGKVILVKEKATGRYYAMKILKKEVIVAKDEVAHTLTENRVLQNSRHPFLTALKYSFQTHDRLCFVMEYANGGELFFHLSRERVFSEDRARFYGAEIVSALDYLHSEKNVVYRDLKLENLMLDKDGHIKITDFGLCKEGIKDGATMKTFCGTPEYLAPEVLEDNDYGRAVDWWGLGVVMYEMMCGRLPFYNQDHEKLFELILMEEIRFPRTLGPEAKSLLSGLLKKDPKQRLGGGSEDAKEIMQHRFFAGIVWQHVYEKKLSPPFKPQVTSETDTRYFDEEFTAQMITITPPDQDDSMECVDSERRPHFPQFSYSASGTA"}, "[2]": {"biological_target": "Akt2"}}, "data": [{"protein": "B1", "values": [{"measurement": "dephosphorylation of phosphorylated Ser-473 (FIG. 15, right, second panel from the top)", "setting": "[1]", "result": "directly dephosphorylates the phosphorylated Ser-473 thereof"}, {"measurement": "dephosphorylation of phosphorylated Ser-473 (FIG. 15, right, second panel from the top)", "setting": "[2]", "result": "directly dephosphorylates the phosphorylated Ser-473 thereof"}]}]}
